Measured values published in publication PMC6823310, “XszenFHal, a novel tryptophan 5-halogenase from Xenorhabdus szentirmaii” (AMB Express, 2019).

Substrate: N[C@@H](Cc1c[nH]c2ccccc12)C(=O)O
Experiment: initial rates of chlorination by UHPLC-UV, Michaelis-Menten fit
Type: biochemical, Xenorhabdus szentirmaii
Conditions: 20 mM NaCl, 0.05 mM NADH, 0.01 mM FAD, flavin reductase K12Fre 0.1 μM, phosphate pH 7.5, 25 °C

B1: XszenFHal (FHal16) (Xenorhabdus szentirmaii DSM 16338) (protein)
chain: MINSVLIVGGGTAGWMTAAYLSKAFDKNINITVVESKEVKKIGVGEATFSTVRHYFDYLGLNESEWLPECSGSYKLGIRFENWDGQGNHFYHPFERWEVVKGFPISEWWLSKKLKDQRFDYDTFLTPHLCEAKRSPRRLDGSLFAQSIDKSLGQSTLAEQRAQYPYAYHFDADGVASFLKRYAMNRGVKHIEDDVTHVEIDTNGNIGYLEAKIYGKLRADLYIDCTGFKGLLINKALNEPFISFSDVLKNNRAVALRVPRENENDIEPYTTARTMSNGWRWTIPLYKRNGYGYVYCNKYQSPEEAEMELRKSIPYENAECVANHIRMRIGRSNRSWVKNCVAIGLSSAFVEPLESTGIFFIQHGIEQLVRFFPRSSGNELLIEEYNTRVNRVVDGVKEFLLLHFSLAQRNDTLYWKEWKNVELPKELLKKITLAQDHLLDKETIYPFYHGFEEYSWNTMILGLCSGSLNNKPALSLMTSDEADEMLLQHYMKAENMVNNLPTCYEYLKHIHDLKNKN
notes: N-terminal His tag (modified pET22b(+)), expressed in E. coli BL21-CodonPlus (DE3)-RIPL
With B1 as the protein, how does the Km read?
The Km was 58.22 µM.

What about the kcat of the same protein?
The kcat was 0.074 s⁻¹.
